# Results from patent US20080026996A1, “Selective Vpac2 Receptor Reptide Agonists” (ELI LILLY AND COMPANY, priority 2004, published 2008).
# Where no end group is shown, it is not given here. [ ]: non-standard residue; d: D form. The star is where a group is joined. hArg = N=C(N)NCCCC[C@H](N)C(=O)O; Nle = CCCC[C@H](N)C(=O)O; Orn = NCCC[C@H](N)C(=O)O; Hexanoyl = CCCCCC(=O)*; Aib = CC(C)(N)C(=O)O
# Columns and labels:
# human VPAC2 [1] = molecular target: T1, human VPAC2 (Homo sapiens, UniProt P41587); experiment: Alpha screen cAMP in vitro potency, human VPAC2 receptor; type: cell-based; conditions: cAMP generation; single result from two analyses performed in a single run; read-out: Human VPAC2 Receptor: Alpha Screen EC50
# T1 construct: expressed in transfected cells
# T1 sequence (P41587 24-438): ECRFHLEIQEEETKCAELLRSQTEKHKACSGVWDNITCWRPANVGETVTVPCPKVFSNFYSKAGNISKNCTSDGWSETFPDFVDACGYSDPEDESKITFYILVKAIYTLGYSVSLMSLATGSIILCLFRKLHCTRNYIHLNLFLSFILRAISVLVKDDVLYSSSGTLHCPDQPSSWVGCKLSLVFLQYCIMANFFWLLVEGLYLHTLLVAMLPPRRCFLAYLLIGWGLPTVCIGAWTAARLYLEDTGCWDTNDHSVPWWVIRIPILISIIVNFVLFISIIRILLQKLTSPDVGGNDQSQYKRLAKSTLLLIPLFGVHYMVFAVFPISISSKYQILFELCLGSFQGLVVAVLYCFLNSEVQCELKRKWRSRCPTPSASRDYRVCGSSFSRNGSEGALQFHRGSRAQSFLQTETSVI
# Outline: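 Under reduced light, acceptor beads accompany the stimuli during a 60-minute incubation of cells in stimulation buffer (50,000 per well point). Donor beads go in with lysis buffer for a further 60–120 minutes, and the resulting AlphaScreen signal indicates cAMP levels.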
# human VPAC2 [2] = molecular target: T1, human VPAC2; experiment: Filter binding assay, membranes of stable VPAC2 cell line, 125I-labeled VIP tracer (Table 2); conditions: read-out: Human VPAC2 Receptor Binding
# Outline: (§1)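 Scintillation counting of filter-retained radioligand gave the read-out. Compounds competed with the labelled tracer (about 40000 cpm) for 2.5 μg membranes during 1 hour of shaking in HEPES pH 7.4 buffer containing 0.5% BSA.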
# [3] = Rat serum stability studies (remaining active peptide by DiscoveRx cAMP on CHO-VPAC2 cells); type: in vitro ADME
# Outline: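 Rat serum, 18 h: +aprotinin aliquot at 4° C, no-aprotinin aliquot at 37° C. Then 30 min RT step, supernatant removed, 1 h shaking at 300 rpm. DiscoveRx cAMP kit on CHO-VPAC2; EC50 from cAMP data vs standards.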
# human VPAC1 = molecular target: T2, human VPAC1 (Homo sapiens, UniProt P32241); experiment: Filter binding assay, membranes of cells transiently transfected with human VPAC1, 125I-labeled VIP tracer (Table 2); design: expressed in transfected cells; conditions: read-out: Human VPAC1 Receptor Binding
# T2 sequence (P32241 31-457): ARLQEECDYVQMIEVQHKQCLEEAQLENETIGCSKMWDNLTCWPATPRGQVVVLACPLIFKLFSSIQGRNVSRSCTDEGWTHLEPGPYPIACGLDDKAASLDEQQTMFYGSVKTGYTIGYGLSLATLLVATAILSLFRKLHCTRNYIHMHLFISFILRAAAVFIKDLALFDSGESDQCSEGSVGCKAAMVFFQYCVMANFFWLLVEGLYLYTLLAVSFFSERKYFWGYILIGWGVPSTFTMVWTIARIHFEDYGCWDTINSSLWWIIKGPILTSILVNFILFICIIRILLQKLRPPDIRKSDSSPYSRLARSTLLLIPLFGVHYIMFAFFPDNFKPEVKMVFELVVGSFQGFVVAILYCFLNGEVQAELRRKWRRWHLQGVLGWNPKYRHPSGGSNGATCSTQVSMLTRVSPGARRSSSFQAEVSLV
# Outline: as §1
# rat VPAC2 receptor [4] = molecular target: T3, rat VPAC2 receptor (Rattus norvegicus, UniProt P35000); experiment: DiscoveRx in vitro potency, CHO-PO cells transiently transfected with rat VPAC 2 receptor DNA; type: cell-based; design: expressed in transfected cells; host or cells: CHO-PO, transient
# T3 sequence (P35000 23-437): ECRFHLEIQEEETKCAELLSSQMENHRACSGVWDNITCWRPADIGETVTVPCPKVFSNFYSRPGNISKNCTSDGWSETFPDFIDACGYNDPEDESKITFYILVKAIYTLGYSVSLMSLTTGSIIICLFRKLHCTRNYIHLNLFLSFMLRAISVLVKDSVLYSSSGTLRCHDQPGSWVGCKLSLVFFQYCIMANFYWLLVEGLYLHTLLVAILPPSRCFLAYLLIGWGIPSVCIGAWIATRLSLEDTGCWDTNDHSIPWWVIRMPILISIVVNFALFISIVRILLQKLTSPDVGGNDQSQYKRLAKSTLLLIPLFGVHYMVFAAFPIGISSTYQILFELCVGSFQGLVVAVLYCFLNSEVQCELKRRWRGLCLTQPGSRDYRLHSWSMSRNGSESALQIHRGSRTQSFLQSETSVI
# Method: Also, the cells are washed twice. […] The stimuli are present for 30 minutes. Then, the assay buffer is gently removed.
# human VPAC2 receptor = molecular target: T4, human VPAC2 receptor (human, UniProt P41587 24-438); experiment: cell-based or functional assay
# T4 sequence (looked up): T1 sequence (P41587 24-438)
# rat VPAC1 receptor = molecular target: T5, rat VPAC1 receptor (rat, UniProt P30083 31-459); experiment: cell-based or functional assay
# T5 sequence (looked up): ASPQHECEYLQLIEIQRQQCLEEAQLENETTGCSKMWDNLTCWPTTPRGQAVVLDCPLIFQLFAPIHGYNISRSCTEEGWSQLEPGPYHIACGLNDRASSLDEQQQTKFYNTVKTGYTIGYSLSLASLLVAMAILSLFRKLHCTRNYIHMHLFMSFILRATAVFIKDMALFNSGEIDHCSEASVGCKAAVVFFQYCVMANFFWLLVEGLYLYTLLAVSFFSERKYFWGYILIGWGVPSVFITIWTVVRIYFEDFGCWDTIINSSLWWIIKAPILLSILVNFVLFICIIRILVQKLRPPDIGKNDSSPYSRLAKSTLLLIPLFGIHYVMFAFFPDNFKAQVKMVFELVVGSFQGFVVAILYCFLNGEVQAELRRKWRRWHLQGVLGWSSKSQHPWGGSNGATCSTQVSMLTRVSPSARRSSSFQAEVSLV
# rat VPAC2 receptor [5] = molecular target: T6, rat VPAC2 receptor (rat, UniProt P35000 23-437); experiment: cell-based or functional assay
# T6 sequence (looked up): T3 sequence (P35000 23-437)
Molecule,EC50 (human VPAC2 [1]) [nM],IC50 (human VPAC2 [2]) [nM],Rat Serum Stability (estimated purity in % after 18 hours) [3] [%],IC50 (human VPAC1) [nM],EC50 (rat VPAC2 receptor [4]) [nM],"EC50 cAMP, Alpha Screen (human VPAC2 receptor) [nM]","EC50 cAMP, DiscoveRx (rat VPAC1 receptor) [nM]","EC50 cAMP, DiscoveRx (rat VPAC2 receptor [5]) [nM]"
Hexanoyl-HSDAVFTDNYTRL[hArg][Orn]QVAAKKYLQSIKNKRYGGPSSGAPPPS [Agonist P308],0.26,0.34,0.97,262,0.09,,,
CCCCCC(=O)N[C@@H](Cc1c[nH]cn1)C(=O)N[C@@H](CO)C(=O)N[C@@H](CC(=O)O)C(=O)N[C@@H](C)C(=O)N[C@H](C(=O)N[C@@H](Cc1ccccc1)C(=O)N[C@H](C(=O)N[C@@H](CC(=O)O)C(=O)N[C@@H](CC(N)=O)C(=O)N[C@@H](Cc1ccc(O)cc1)C(=O)N[C@H](C(=O)N[C@@H](CCCCNC(=N)N)C(=O)N[C@@H](CC(C)C)C(=O)N[C@@H](CCCNC(=N)N)C(=O)NC(C)(C)C(=O)N[C@@H](CCC(N)=O)C(=O)N[C@H](C(=O)N[C@@H](C)C(=O)N[C@@H](C)C(=O)NC(C)(C)C(=O)N[C@@H](CCCCN)C(=O)N[C@@H](Cc1ccc(O)cc1)C(=O)N[C@@H](CC(C)C)C(=O)N[C@@H](CCC(N)=O)C(=O)N[C@@H](CO)C(=O)N[C@H](C(=O)N[C@@H](CCCCNC(=N)N)C(=O)N[C@@H](CC(N)=O)C(=O)N[C@@H](CCCCNC(=N)N)C(=O)N[C@@H](CCCCNC(=N)N)C(=O)N[C@@H](Cc1ccc(O)cc1)C(=O)NCC(=O)NCC(=O)N1CCC[C@H]1C(=O)N[C@@H](CO)C(=O)N[C@@H](CO)C(=O)NCC(=O)N[C@@H](C)C(=O)N1CCC[C@H]1C(=O)N1CCC[C@H]1C(=O)N1CCC[C@H]1C(=O)N[C@@H](CO)C(=O)O)[C@@H](C)CC)C(C)C)[C@@H](C)O)[C@@H](C)O)C(C)C [Agonist P338],0.46,0.76,36.61,> 3000,0.07,,,
Hexanoyl-HSDAVFTDNYTRLR[Aib]QKAA[Aib]KYLQSIKNKRYGGPSSGAPPPS [Agonist P323],0.23,0.32,16.81,> 3000,0.07,,,
Hexanoyl-HSDAVFTDNYTRLR[Aib]KVAA[Aib]KYLQSIKNKRYGGPSSGAPPPS [Agonist P321],0.38,0.29,,429,0.04,,,
Hexanoyl-HSDAVFTDNYTRL[hArg]KQVAAKKYLQSIKNKRYGGPSSGAPPPS (ends and bridges not checked) [P305],,,,,,0.17,3.71,0.04
Hexanoyl-HSDAVFTDNYTRLR[Aib]QVAAK[Aib]YLQSIKNKRYGGPSSGAPPPS (ends and bridges not checked) [P264],,,,,,0.1,4.01,0.1
Hexanoyl-HSDAVFTDNYTRLR[Aib]QLAAK[Aib]YLQSIKNKRYGGPSSGAPPPS (ends and bridges not checked) [P284],,,,,,0.18,0.44,0.07
"HSDAVFTDNYTRLRXQVAAXKYLQSIXXGGPSSGAPPPS (N-terminal hexanoyl (C6); Aib at 15, 20; Orn at 27, 28) [P352]",,,,,,0.14,4.35,0.09
"HSDAVFTDNYTXLRXQVAAXKYLQSIXNXGGPSSGAPPPS (N-terminal hexanoyl (C6); Orn at 12, 27, 29; Aib at 15, 20) [P326]",,,,,,0.21,4.53,0.09
Hexanoyl-HSDAVFTDNYTRL[hArg][Orn]QVAAKKYLQSIKNKRYGGPSSGAPPPS (ends and bridges not checked) [P308],,,,,,0.26,9.74,0.09
Hexanoyl-HSDAVFTDNYTRLR[Aib]KVAA[Aib]KYLQSIKNKRYGGPSSGAPPPS (ends and bridges not checked) [P321],,,,,,0.38,0.11,0.04
Hexanoyl-HSDAVFTDNYTRLR[Aib]QKAA[Aib]KYLQSIKNKRYGGPSSGAPPPS (ends and bridges not checked) [P323],,,,,,0.23,4.41,0.07
Hexanoyl-HSDAVFTDNYTRLR[Aib]QIAA[Aib]KYLQSIKNKRYGGPSSGAPPPS (ends and bridges not checked) [P322],,,,,,0.22,0.5,0.04
Hexanoyl-HSDAVFTDNYTRLR[Aib]Q[Nle]AA[Aib]KYLQSIKNKRYGGPSSGAPPPS (ends and bridges not checked) [P325],,,,,,0.24,1.46,0.04
"HSDAVFTDNYTXLRXQVAAXKYLQSIXNXXYGGPSSGAPPPS (N-terminal hexanoyl (C6); hR at 12, 27, 29, 30; Aib at 15, 20) [P338]",,,,,,0.46,5.16,0.07
